Reference: US20240123070A1 (SHANGHAI GENBASE BIOTECHNOLOGY, published 2024)
Positions count from the first letter of the chain named.

B1: B8.2.4 TCR mutant β95Q-V (TCR, V domains shown)
V domain 1: AQKITQTQPGMFVQEKEAVTLDCTYDTSDPSYGLFWYKQPSSGEMIFLIYQGSYDQQNATEGRYSLNFQKARKSANLVISASQLGDSAMYFCAMRERTGTASKLTFGTGTRLQVTL
V domain 2: DVKVTQSSRYLVKRTGEKVFLECVQDMDHENMFWYRQDPGLGLRLIYFSYDVKMKEKGDIPEGYSVSREKKERFSLILESASTNQTSMYLCASSVTVPPQHFGDGTRLSILE
B2: B8.2.4 TCR mutant β95Q-W (TCR, V domains shown)
V domain 1: B1 V domain 1
V domain 2: B1 V domain 2 with V95W
B3: B8.2.4 TCR mutant β95Q-Y (TCR, V domains shown)
V domain 1: B1 V domain 1
V domain 2: B1 V domain 2 with V95Y
B4: B8.2.4 TCR mutant β96T-A (TCR, V domains shown)
V domain 1: B1 V domain 1
V domain 2: B1 V domain 2 with V95Q, T96A
B5: B8.2.4 TCR mutant β96T-C (TCR, V domains shown)
V domain 1: B1 V domain 1
V domain 2: B1 V domain 2 with V95Q, T96C
B6: B8.2.4 TCR mutant β96T-D (TCR, V domains shown)
V domain 1: B1 V domain 1
V domain 2: B1 V domain 2 with V95Q, T96D
B7: B8.2.4 TCR mutant β96T-E (TCR, V domains shown)
V domain 1: B1 V domain 1
V domain 2: B1 V domain 2 with V95Q, T96E
B8: B8.2.4 TCR mutant β96T-F (TCR, V domains shown)
V domain 1: B1 V domain 1
V domain 2: B1 V domain 2 with V95Q, T96F
B9: B8.2.4 TCR mutant β96T-G (TCR, V domains shown)
V domain 1: B1 V domain 1
V domain 2: B1 V domain 2 with V95Q, T96G
B10: B8.2.4 TCR mutant β96T-H (TCR, V domains shown)
V domain 1: B1 V domain 1
V domain 2: B1 V domain 2 with V95Q, T96H
B11: B8.2.4 TCR mutant β96T-I (TCR, V domains shown)
V domain 1: B1 V domain 1
V domain 2: B1 V domain 2 with V95Q, T96I
B12: B8.2.4 TCR mutant β96T-K (TCR, V domains shown)
V domain 1: B1 V domain 1
V domain 2: B1 V domain 2 with V95Q, T96K
B13: B8.2.4 TCR mutant β96T-L (TCR, V domains shown)
V domain 1: B1 V domain 1
V domain 2: B1 V domain 2 with V95Q, T96L
B14: B8.2.4 TCR mutant β96T-M (TCR, V domains shown)
V domain 1: B1 V domain 1
V domain 2: B1 V domain 2 with V95Q, T96M
B15: B8.2.4 TCR mutant β96T-N (TCR, V domains shown)
V domain 1: B1 V domain 1
V domain 2: B1 V domain 2 with V95Q, T96N
B16: B8.2.4 TCR mutant β96T-P (TCR, V domains shown)
V domain 1: B1 V domain 1
V domain 2: B1 V domain 2 with V95Q, T96P
B17: B8.2.4 TCR mutant β96T-R (TCR, V domains shown)
V domain 1: B1 V domain 1
V domain 2: B1 V domain 2 with V95Q, T96R
B18: B8.2.4 TCR mutant β96T-Q (TCR, V domains shown)
V domain 1: B1 V domain 1
V domain 2: B1 V domain 2 with V95Q, T96Q
B19: B8.2.4 TCR mutant β96T-S (TCR, V domains shown)
V domain 1: B1 V domain 1
V domain 2: B1 V domain 2 with V95Q, T96S
B20: B8.2.4 TCR mutant β96T-V (TCR, V domains shown)
V domain 1: B1 V domain 1
V domain 2: B1 V domain 2 with V95Q, T96V
B21: B8.2.4 TCR mutant β96T-W (TCR, V domains shown)
V domain 1: B1 V domain 1
V domain 2: B1 V domain 2 with V95Q, T96W
B22: B8.2.4 TCR mutant β96T-Y (TCR, V domains shown)
V domain 1: B1 V domain 1
V domain 2: B1 V domain 2 with V95Q, T96Y
B23: B8.2.4 TCR mutant β97V-A (TCR, V domains shown)
V domain 1: B1 V domain 1
V domain 2: B1 V domain 2 with V95Q, V97A
B24: B8.2.4 TCR mutant β97V-C (TCR, V domains shown)
V domain 1: B1 V domain 1
V domain 2: B1 V domain 2 with V95Q, V97C
B25: B8.2.4 TCR mutant β97V-D (TCR, V domains shown)
V domain 1: B1 V domain 1
V domain 2: B1 V domain 2 with V95Q, V97D
B26: B8.2.4 TCR mutant β97V-E (TCR, V domains shown)
V domain 1: B1 V domain 1
V domain 2: B1 V domain 2 with V95Q, V97E
B27: B8.2.4 TCR mutant β97V-F (TCR, V domains shown)
V domain 1: B1 V domain 1
V domain 2: B1 V domain 2 with V95Q, V97F
B28: B8.2.4 TCR mutant β97V-G (TCR, V domains shown)
V domain 1: B1 V domain 1
V domain 2: B1 V domain 2 with V95Q, V97G
B29: B8.2.4 TCR mutant β97V-H (TCR, V domains shown)
V domain 1: B1 V domain 1
V domain 2: B1 V domain 2 with V95Q, V97H
B30: B8.2.4 TCR mutant β97V-I (TCR, V domains shown)
V domain 1: B1 V domain 1
V domain 2: B1 V domain 2 with V95Q, V97I
B31: B8.2.4 TCR mutant β97V-K (TCR, V domains shown)
V domain 1: B1 V domain 1
V domain 2: B1 V domain 2 with V95Q, V97K
B32: B8.2.4 TCR mutant β97V-L (TCR, V domains shown)
V domain 1: B1 V domain 1
V domain 2: B1 V domain 2 with V95Q, V97L
B33: B8.2.4 TCR mutant β97V-M (TCR, V domains shown)
V domain 1: B1 V domain 1
V domain 2: B1 V domain 2 with V95Q, V97M
B34: B8.2.4 TCR mutant β97V-N (TCR, V domains shown)
V domain 1: B1 V domain 1
V domain 2: B1 V domain 2 with V95Q, V97N
B35: B8.2.4 TCR mutant β97V-P (TCR, V domains shown)
V domain 1: B1 V domain 1
V domain 2: B1 V domain 2 with V95Q, V97P
B36: B8.2.4 TCR mutant β97V-R (TCR, V domains shown)
V domain 1: B1 V domain 1
V domain 2: B1 V domain 2 with V95Q, V97R
B37: B8.2.4 TCR mutant β97V-Q (TCR, V domains shown)
V domain 1: B1 V domain 1
V domain 2: B1 V domain 2 with V95Q, V97Q
B38: B8.2.4 TCR mutant β97V-S (TCR, V domains shown)
V domain 1: B1 V domain 1
V domain 2: B1 V domain 2 with V95Q, V97S

Each binder was assayed against KRAS G13D antigen (G13D-RT6, SEQ ID NO: 20) loaded on Lovo-DPA0301:DPB0501 cells (human) (assay: cell-based or functional assay).

Row | Binder | TCR Mut RLU/WT RLU [ratio]
1 | B1 | 0.76
2 | B2 | 0.88
3 | B3 | 0.92
4 | B4 | 0.77
5 | B5 | 0.78
6 | B6 | 0.28
7 | B7 | 0.06
8 | B8 | 0.42
9 | B9 | 0.05
10 | B10 | 0.82
11 | B11 | 0.41
12 | B12 | 0.84
13 | B13 | 0.31
14 | B14 | 0.35
15 | B15 | 0.82
16 | B16 | 0.39
17 | B17 | 0.49
18 | B18 | 0.57
19 | B19 | 0.8

Row | Binder | TCR Mut RLU/WT RLU [ratio]
20 | B20 | 0.97
21 | B21 | 0.64
22 | B22 | 0.4
23 | B23 | 0.56
24 | B24 | 0.37
25 | B25 | 0.21
26 | B26 | 0.31
27 | B27 | 0.31
28 | B28 | 0.26
29 | B29 | 0.44
30 | B30 | 0.61
31 | B31 | 0.48
32 | B32 | 0.58
33 | B33 | 0.35
34 | B34 | 0.26
35 | B35 | 0.32
36 | B36 | 0.37
37 | B37 | 0.3
38 | B38 | 0.78
